The nature of the data set: soluble fraction after stress (log2 fold change); higher = more stays soluble; pooled small domains, quantitative proteomics. The note with it: stress: 75 degC.
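Note: 20 min heating vs room temperature control held 20 min.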

For “HMQLVPGIGRLSARELEVFTLIGRGLGTSEIGKKLGVSAYTVQTHRNHIKEKLNLPNAAAITYWAIQWAHG”, the “soluble fraction (log2)” value was -2.27.
On to “HMQMEDTDALLQVAKEVVAENQDTVEAYLGGREKAFASLIGAAMKKTRGKANPKVIRQLILDLIQ”, for which the “soluble fraction (log2)” value came out at 0.564.
For the sequence “HMQMEISQRIKLERQTLKWTQEELADKIFVSKRTISNWETGRTVPDIESVLRLAKVFHVSLEDLLL”, the “soluble fraction (log2)” value is -4.46.
Consider “HMQMEYEKAIAYILDKIKSGELSIGSKLPAERVIADTLHIGRNSTREALSILHGMGMVDRVHGSGNYISEH”, for which the “soluble fraction (log2)” value was -0.752.
To “HMQMLQDPFLNALRKEHVPVSIYLVNGIKLQGQVESFDQYVVLLRNTSVTQMVYKHAISTIVPARAVSL” belongs -0.748; to “HMQMRKENKILVTDIGEIDEVKVIFDDDNKPYLYSYNGEDEFYRPDETYKFFDNKEQAEEYVREN”, 0.0692; to “HMQMSPREKMIYSFIESHPGTKSGEIAEKLNVPLPTVKRILSEMVSGNFIAKHGSGIGTNYSTEK”, 0.335.
As for “HMQMSWDAVKARLQDIVNNEDKTKPFNDEMLASKLKEQGIEIARRTVVKYRQQLGIPAARLRKK”, the “soluble fraction (log2)” value was -0.752.
In the case of “HMQNAETPDVAAEFRTWTSADGQFQVIAKLVKLDGESVHLERQDDGRQIAVPLGKLSSEDRLFLRGVRP”, the “soluble fraction (log2)” value was -0.184.
Regarding “HMQNEQIAFSKFLQEVDSGRVVQVEIQGNNIKGILSDGSKFYTYSPNYPELVGKLSEKGVNIVASPVE”, the “soluble fraction (log2)” value was determined as 0.196.
Turning to “HMQNFLSITSKEKIDIGNFQLISFKFENNLYDYVISGNKSELLIFQEKTIENNNENIEKITSNF”, the “soluble fraction (log2)” value was -2.54.
With “HMQNLETVEEIKELALNYLDKYQPSKKSLQVYLFRKAIDAQSNSVEKSEILKKIETVLTDLEEQGILNDAL”, the “soluble fraction (log2)” value is -0.135.
As to “HMQNMVYVATKDIPAGGVIDQDSVSKTAISTSIDTSLYITDDDLGKIAVVNISQGQSVFSNMVGT”, the “soluble fraction (log2)” value worked out at 0.656.
To “HMQNNITISKEIELRTGPDDTYPTLKKVTAGDNVEMLSKSDTWYEIKTNDSFVGWVPGWSIL” belongs -0.0886.
For the sequence “HMQNSYSVEDLALKAGLSVDTIRYYQGLDLIAPPQKNGRRAIYGDEHLSRLDEIKKLALEGFSLRQISLLK”, the “soluble fraction (log2)” value is -0.739.
To “HMQNYNLTQQEKKVLQLLVSGKSYKMIAAELNVAFDTVKSHITNIYSKLHVHSGTEAVSVAIRDKI” belongs -1.46.
Turning to “HMQPDDELVRLLLIKIFNDKQLKVNPAVINYLLRRIDRSFESINNFVKKIDEFSLEKGRKITVNLVSGFF”, the “soluble fraction (log2)” value was -0.777.
To “HMQPFTELTPREREILGHLAEGQSNKVIARHLDISDGTVKLHVKAILRKLGVHSRVEAAVMAVEHGIR” belongs -2.11.
Consider “HMQPIEIQDRITKAFERSAALEAKNINVEVDGHTVKLTGTVHSLTEKEEARKAAFFAPGVTKVENHLIVDY”, for which the “soluble fraction (log2)” value was found to be 0.0424.
With “HMQPMIQIHTLANHAPVALHIKRNTQRNIIIRARDASSLNLSIPKWFSPAQLQNWLRDNEATLIRILQQAP”, the “soluble fraction (log2)” value is -3.6.
As for “HMQPPKIISTVEPYREVVREYLKQGVEMTAIWQRLRENYQYTGSYSSVRRFVAQLEPRQPEA”, the “soluble fraction (log2)” value is -1.9.
“HMQPQLFRVIADDGLNIRSGPGPEYPPVAPMLRKGTQVELLQAGDRWSKVEVVGSTDVEGWVNQRYLQAV”: the “soluble fraction (log2)” value was -0.169.
“HMQPSQTLSATVEFPDRLDRFLALAFPEVSRARFQRLIAEGHVSVEGVPATEIRHKLKAGQRVEAVIPPA”: the “soluble fraction (log2)” value was -0.276.
Consider “HMQPTVEGLMKALETMTFNERTALALHYGLTGRQPMTFMAIGRYLGISDGRAEALVNSAIRKLR”, for which the “soluble fraction (log2)” value was -1.8.
Turning to “HMQQGVEQLPVTEVGGRLMHYYEVQPKETLYSLSHKLGVGQEYIEQHNPSVRGGLRAFMTLYFPAA”, the “soluble fraction (log2)” value is -0.00835.
“HMQQIAVDLSEFKPRLMRDMSSMLAGLYTHDLDLSSLDFSKVANFTFMFRGAIITGTLKMPKI”: the “soluble fraction (log2)” value came to 0.202.
To “HMQQLDDDTVAYVADNGIAVKSKNGKELSVDTSGLSYDIIMDMFRNLPRNGDFFSSKYWSDNIQKAQAR” belongs 0.447; to “HMQQLIEFSVTKGHPWINKKIMDLNLPENQLILTIQREGHVVSAEGKTIILENDRITISTDDR”, -1.26; to “HMQQPVVVQQNQTVRVVTGGPGFQVANEGRALNNGLAGQVVQVRLGNGQIISGIARAGGIVEIL”, -0.017.
As for “HMQQSQLDDIKSVVGGDEGYNKLREWTQANVPDETLKAFDKILDTQDPTMIKVAVEGFAAQMRQAE”, the “soluble fraction (log2)” value is -0.232.
With “HMQQTAEDWKNKGDSLTAQSEYVEAIAAYDEAIRLDPNYAPAWSNKGNALKNLGEYYKAIQAYDEAIRL”, the “soluble fraction (log2)” value was 0.104.
To “HMQQYLDAYDKALAFGIAMNKLPSYENLTLDDKEDVDKLKEIYDGMSNYEKTFVAKDFTDKLDRYVKRIE” belongs 0.347; to “HMQRADYLILYYIKMQAEQHPDSKVYLADLAAVMGLKVTELSKAVEKLQDNGFVAWKTDREAGRTYVELS”, -3.13.
Consider “HMQRIFIDNHDRILYYSNPAGYIAGKEAVVDTMFQTQELERFLQKQSLSIRWEDGVYDRLLLGQ”, for which the “soluble fraction (log2)” value was -0.0579.
To “HMQRRHESTPIPADFDYAAVRGLSAEVQQKLERVRPLSIGQAQRIPGMTPAAISLLLVHLERQRRSRV” belongs -1.24; to “HMQRSVKNNDTVQVHYTGKLTNGQIFDSSIDKQPLEFQLGQGQIIPGFEKGLIDMTVSEKKTITIPEAEAY”, 0.193.
Turning to “HMQSAEMTLDREGQPVQVRVELTGNEARITFLSDQEQTREALDAGMAQLRELLEQQGMVLAGVTV”, the “soluble fraction (log2)” value was -0.00816.
To “HMQSDQLSDREREILRLIGSGRTNQEISQELQVSGSTVRTHLQHILDKLGLENRNQAVLYAIRIGLAAPP” belongs -0.163; to “HMQSHGSRIWTDITGNFTREASFIELAEGKVTLQLTDGRRTIISFEILSKKDQEYVLDIGDS”, -2.77.
Regarding “HMQSKDDLLDTFRVVKGNAALLNDQNKKLIRSLKVSSFGFTGITDQAAEVKKEMPDVLLEKASIEDILF”, the “soluble fraction (log2)” value turned out to be 0.0597.
To “HMQSLAAKINGYIVAQRTSIAAIAKEIGYSRVTVSRYLAGKYDSDPTGIEAKLAAFLAGQTGEE” belongs -3.99; to “HMQSNIHELQKKLNEALQALSEDHRAVVTMFDIQGMPHAEISKILGVSEGTVRSRLYYAHQQLQGHL”, -1.11; to “HMQSRYALLAGMLRARITEGDWVPGSAIPAETVLAKEHGVALGTMRQAIALLVSQGLLERQHGRGTFVRS”, -1.58.
As for “HMQSSDQTDNIYENAVSIVLETGKASASHLQRVLGIDYNLAAHLIDKMEDGGLLSPPNYLGHRDVYGYT”, the “soluble fraction (log2)” value was 0.317.
Turning to “HMQTFNADDIEPIIKEILQENPKAISDFLTGNENVVKFLLGQVMKNTKGKANPKVIEELLINQLRELNN”, the “soluble fraction (log2)” value was -0.235.
Regarding “HMQTGYHVRITASTLNVRRDHSASSAVATQVRRGEVYTIVDEYNNGGTLWGKLKSGAGWIALKYTQS”, the “soluble fraction (log2)” value was -3.39.
For “HMQTTITITNTVTGQKAQFPPPFNPMSLSKIGVDETFEKEVFVDGVDTFGYGLDGYLTFYELKDFLRSYQ”, the “soluble fraction (log2)” value is -2.61.
Consider “HMQVEYTRGELLQDLKEENVLYATITPSRETPTGEVDFVFKDKSIKTLYVTDVSEIEGLLMDYGIDPEVKK”, for which the “soluble fraction (log2)” value is -0.454.
Regarding “HMQVITEPFQEKYREFINMSTVTQRLEERETLSFTAQTVEGRWLTIIIVPQGYDKTGKLSTVLVANR”, the “soluble fraction (log2)” value came to 0.274.
“HMQVSDEGAIQLLVQKAIEENPQAIEAFRGGKTSALGPVVGWVMKQSKGAANPTMVKTLLEKAI”: the “soluble fraction (log2)” value worked out at 0.154.
Regarding “HMQVVVEKSKEKVIISGNQYYIHIVKKGETAFSIAKAYGITVDELVKNNPSAATVLKEGQALRIPVVE”, the “soluble fraction (log2)” value is 0.0365.
Consider “HMQYDESSQLGERFLNQALNALKADPDKVGDAQWEKLLKENSAKSRQEVLADIGLGKQLAIVIARELLS”, for which the “soluble fraction (log2)” value is -0.148.
Turning to “HMQYPSSLDSRAKQSLYDNLERNEILALALDNVIQSNKLDGWRDGGIKERKLRLAINNLLKNDEHTDNIME”, the “soluble fraction (log2)” value was -0.0341.
Turning to “HMQYQIITENGKQYYLYTVQKSEGFYSIGKRFEITNDEIIKANPEAALGLKLGQVLKIPVYK”, the “soluble fraction (log2)” value is -2.4.
Consider “HMRAAKSEDTRTRLIEGGMALFGQKGYNATGIKDITDAAGVPKGSFYNYFASKEDFGAEIIHSY”, for which the “soluble fraction (log2)” value came to 0.14.
Regarding “HMRAEELEQFVERLKNEVMNNFPLKELSDNELREKIENLVEIRLANVYVSIEQRVAIAEQIYSSIR”, the “soluble fraction (log2)” value was -1.1.
In the case of “HMRAERVQITDPYIELHTGPGRGFPIFFVAPREQWISIELRHTDWFKVRAVGGQVGWVQRKQLEST”, the “soluble fraction (log2)” value is -1.56.
Consider “HMRAGHDFEALKHIESSLDKHLTDEGIKIKSEKRGAIVARWYQSHVEGREVTDDDVHTWIELFF”, for which the “soluble fraction (log2)” value is -2.82.
To “HMRAPIGFRISNRRKSLKISQVALARLVGISPSYLNLIENNKRDVGGALLQRVALHLNIDIDDL” belongs -3.13; to “HMRARTLSTTGGESLLTLAESLYPDDDRARARFIEATAAANPKLFADIAALTRVLPAGTTLRMPDLRA”, -0.0128; to “HMRARTQYWPFVEEKAAELKLPLHLVNVEPLFGEQKVVVHYTANGRIDFRELVHLLARRFHARIEMR”, 0.0673.
For the sequence “HMRATLTDETARVVQEPTSESISLTSLRKGEEFEIGKVIRKKKEVWVTVTTSSGVKGYISGDTHIF”, the “soluble fraction (log2)” value amounted to 0.00739.
On to “HMRAVFEQLRIGQTLAGVVKAQEKGFSLVEIDGQTVAMRLPHPAAVGDTLRLRFAGHMPQAVFLLES”, for which the “soluble fraction (log2)” value was -1.99.
On to “HMRAVPSIAFVTQKLIEQGVTMEQLVRSLLLDHEEYENDDSLERTADELFGKARMIISNYTPE”, for which the “soluble fraction (log2)” value is -1.08.
To “HMRDADRYAFMQENVEDFAKDMRRKHMTYDVLYEEYIRRTDNPYGYTQFKAIVQEYEKNHDYK” belongs -0.367.
Turning to “HMRDGYEKPTEVGEGGRNPAMLSYIGHLRAKGHLSEEDIRSMAHGFNATTFDPPLDRDEVDGLVSRY”, the “soluble fraction (log2)” value is 0.106.
For the sequence “HMRDITAQSNASELYFEERDLEAFIEKLERLYPEIRYVNRLMIHSWGQQVVRFFDPDGNLIEVGTP”, the “soluble fraction (log2)” value is -0.146.
“HMRDKTMLGNVIRTRRKKMNLTLEELSKQVGITSGGLSQIERGLVDPSLSVLRRISRALNLPMNVMFSE”: the “soluble fraction (log2)” value was -1.32.
To “HMRDLAEAETILDALPTRLRKIVRWRHLEGLSQTEIAARLEISQMHVSRLYRRAISMIHASLADD” belongs -0.289.
For “HMREEQELFRKLLEVNGIGPKVAAGMLAGGRPEDVVSAIRREDVAWLTKLPGIGRKTAQRIVLDLKDKLD”, the “soluble fraction (log2)” value was -0.331.

(Values after the domain aggregation screens of Martell et al. (2025).)
